Measured values as given in article PMC11885566.

Target: stable soluble Omicron EG.5.1 (6P) S trimer (SARS-CoV-2)
Assay: cryo-EM structure

For “stable soluble Omicron EG.5.1 (6P) S trimer (domain or fragment)”, which stoichiometry N is on record?
Its stoichiometry N is 3.
